Experimental data: US8987424B2, “CA6 antigen-specific cytotoxic conjugate and methods of using the same” (ImmunoGen, Inc., priority 2003, dated 2015)

What was measured:
BT-20 cells = assay: MTT cell viability assay; format: cell-based, human; conditions: highest conjugate concentration (32 nM)
Protocol: (§1) In the MTT assay, cells were seeded in 96-well plates at a density of 1000-5000 cells/well. The cells were plated with serial dilutions of either naked muDS6 or muDS6-DM1 immunoconjugate in 200 μl of culture media. The samples were run in triplicate. The cells and antibody/conjugate mixtures were then incubated for 2-7 d, at which time cell viability was assessed by an MTT ([3(4,5-dimethylthiazol-2-yl)-2,5-diphenyl tetrazolium bromide)] assay. MTT (50 μg/well) was added to the culture supernatant and allowed to incubate for 3-4 h at 37° C. The media was removed and the MTT formazan was solubilized in DMSO (175 μl/well). The absorbance at 540-545 nm was measured. […] The wells with the highest concentrations of conjugate contained no viable cells as compared to naked antibody which had no effect (FIGS. 21 and 24).

HPAC cells = assay: MTT cell viability assay; format: cell-based, human; conditions: highest conjugate concentration (32 nM)
Protocol: as §1

OVCAR5 cells = assay: MTT cell viability assay; format: cell-based, human; conditions: highest conjugate concentration (32 nM)
Protocol: as §1

TOV-21G tumor xenografts = assay: Subcutaneous TOV-21G xenograft efficacy study; format: in vivo, SCID mice
Protocol: OVCAR5 (FIG. 26A and FIG. 26B), TOV-21 G (FIG. 26C and FIG. 26D), HPAC (FIG. 26E and FIG. 26F), and HeLa (FIG. 26G and FIG. 26H) cells were inoculated on day 0, and immunoconjugate treatments were given on day 6 and 13. PBS control animals were euthanized once tumor volumes exceeded 1000 mm^3. The conjugate was given at a dose of 600 μg/kg DM1, corresponding to an antibody concentration 27.7 mg/kg. Tumor volume (FIG. 26A, FIG. 26C, FIG. 26E, and FIG. 26G) and body weight (FIG. 26B, FIG. 26D, FIG. 26F, and FIG. 26H) of the mice were monitored during the course of the study.
muDS6-DM 1 activity was further tested on a panel of subcutaneous xenograft models (see FIG. 26). […] OVCAR5 cells and TOV-21 G are ovarian tumor cell lines; HPAC is a pancreatic tumor cell line; HeLa is a cervical tumor cell line. OVCAR5 and TOV-21G cells have low surface CA6 expression; HeLa cells have an intermediate level of surface CA6 expression; HPAC cells have a high CA6 density of surface expression. TOV-21G and HPAC cells are maytansine sensitive; OVCAR5 and HeLa cells are 2-7-fold less maytansine sensitive.
The 4 cell-lines were grown in vitro, collected, and 1×10^7 cells in a 100 μL of serum free medium were injected under the right shoulder of each mouse (6 mice per model) and allowed to grow for 6 days to an average tumor volume of 57.6±6.7 and 90.2±13.4 mm^3 for the test and control groups respectively of OVCAR5, 147.1±29.6 and 176.2±18.9 mm^3 for the test and control groups respectively of HPAC, 194.3±37.2 and 201.7±71.7 mm^3 for the test and control groups respectively of HeLa, and 96.6±22.8 and 155.6±13.4 mm^3 for the test and control groups respectively of TOV-21G, at which time drug treatment was initiated. For each model three control mice were treated with two weekly doses of PBS and three test mice were treated with two weekly doses of conjugate (600 μg/kg DM1) intravenously. Toxic responses were monitored daily during the treatment and tumor volumes and body weights were monitored throughout the study. […]

Caov-3 cells = assay: MTT cell viability assay; format: cell-based, human
Protocol: as §1

[1] = 600 μg/kg DM1, two weekly doses

| Molecule | cells still viable (BT-20 cells) | cells still viable (HPAC cells) | cells still viable (OVCAR5 cells) | body weight (TOV-21G tumor xenografts; [1]) | tumor status at day 61 (TOV-21G tumor xenografts; [1]) | tumor regression (TOV-21G tumor xenografts; 600 μg/kg DM1 i.v., two weekly doses) | effect of naked antibody on cell viability (Caov-3 cells) |
| --- | --- | --- | --- | --- | --- | --- | --- |
| DS6-DM1: muDS6 antibody modified with SPP and conjugated to the maytansinoid DM1 (conjugate) VH: QAYLQQSGAELVRSGASVKMSCKASGYTFTSYNMHWVKQTPGQGLEWIGYIYPGNGATNYNQKFKGKATLTADPSSSTAYMQISSLTSEDSAVYFCARGDSVPFAYWGQGTLVTVSA VL: QIVLTQSPAIMSASPGEKVTITCSAHSSVSFMHWFQQKPGTSPKLWIYSTSSLASGVPARFGGSGSGTSYSLTISRMEAEDAATYYCQQRSSFPLTFGAGTKLELKR | over 50% | over 50% | over 50% | no weight loss was observed | tumor-free | complete tumor regression in all mice | – |
| DS6: murine anti-CA6 monoclonal antibody DS6 (ATCC deposit number PTA-4449) (antibody, V domains shown) VH: QAYLQQSGAELVRSGASVKMSCKASGYTFTSYNMHWVKQTPGQGLEWIGYIYPGNGATNYNQKFKGKATLTADPSSSTAYMQISSLTSEDSAVYFCARGDSVPFAYWGQGTLVTVSA VL: QIVLTQSPAIMSASPGEKVTITCSAHSSVSFMHWFQQKPGTSPKLWIYSTSSLASGVPARFGGSGSGTSYSLTISRMEAEDAATYYCQQRSSFPLTFGAGTKLELKR | – | – | – | – | – | – | no effect |
